From US20260234234A1 (QILU PUGET SOUND BIOTHERAPEUTICS, published 2026)

T1: His6-tagged cyIL-33 (Ser112-Ile270), QB10976 (cynomolgus monkey)
T1 construct: Entry includes N-terminal Avitag, FLAG and His6 tags; isoform X1, NCBI XP_005581824; also called cyIL-33 antigen
T1 chain: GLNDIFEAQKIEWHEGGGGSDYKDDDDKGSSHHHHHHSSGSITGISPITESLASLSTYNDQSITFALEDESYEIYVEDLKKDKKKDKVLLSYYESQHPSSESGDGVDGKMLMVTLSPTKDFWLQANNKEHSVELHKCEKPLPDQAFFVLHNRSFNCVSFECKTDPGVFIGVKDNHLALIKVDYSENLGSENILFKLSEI

T2: hST2-Fc protein from R&D Systems (cat no. 523-ST-100) (human, UniProt Q01638 19-328, limits assumed)
T2 construct: Bought reagent; also called human ST2
T2 sequence (looked up): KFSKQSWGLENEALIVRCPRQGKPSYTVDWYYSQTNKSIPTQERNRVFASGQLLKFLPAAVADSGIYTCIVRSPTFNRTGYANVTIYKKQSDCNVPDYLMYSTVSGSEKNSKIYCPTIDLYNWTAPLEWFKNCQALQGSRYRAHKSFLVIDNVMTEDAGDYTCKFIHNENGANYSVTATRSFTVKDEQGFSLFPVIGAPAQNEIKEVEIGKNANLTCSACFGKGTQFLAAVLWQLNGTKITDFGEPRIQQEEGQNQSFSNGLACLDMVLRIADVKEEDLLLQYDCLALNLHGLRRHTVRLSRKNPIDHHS

B1: Avitag_c-MYC_His6-tagged hIL-33 (Ser112-Thr270), QB10975 (ligand)
chain: GLNDIFEAQKIEWHEGGGGSEQKLISEEDLGSSHHHHHHSSGSITGISPITEYLASLSTYNDQSITFALEDESYEIYVEDLKKDEKKDKVLLSYYESQHPSNESGDGVDGKMLMVTLSPTKDFWLHANNKEHSVELHKCEKPLPDQAFFVLHNMHSNCVSFECKTDPGVFIGVKDNHLALIKVDSSENLCTENILFKLSET
notes: Entry includes N-terminal Avitag, c-MYC and His6 tags; reduced with DTT to the active form; also called active hIL-33; reduced hIL-33

Legend:
[1] = target: T1, His6-tagged cyIL-33 (Ser112-Ile270), …; assay: SPR, captured antibody, cyIL-33 analyte, 25 C, 1:1 fit
Procedure: (§1) The polyclonal goat-anti-human IgG (Fc specific) antibodies were immobilized on a CM4 chip surface using a standard amine coupling method. […] After each cycle, the chip was regenerated with 10 mM glycine-HCl, pH 1.5. The results were analyzed using Biacore T200 evaluation software V3.2. Results were double referenced and fit to a 1:1 interaction model.
(§2) The kinetic binding data was obtained using SPR on a Biacore T200 equipment. […] The complex was allowed to associate for 3 min and dissociate for up to 1 hr. At the end of each cycle the CM4 chips were regenerated with 10 mM glycine pH1.5. The T200 Evaluation software V3.2 was used to align and double reference the data.

[2] = target: B1; assay: SPR, captured antibody, hIL-33 analyte, 37 C, 1:1 fit
Procedure: as §1, §2

[3] = target: T1, His6-tagged cyIL-33 (Ser112-Ile270), …; assay: SPR, cyIL-33 analyte
Procedure: (§3) The kinetic binding data was obtained using SPR on a Biacore T200 equipment. […] The complex was allowed to associate for 3 min and dissociate for up to 1 hr. At the end of each cycle the CM4 chips were regenerated with 10 mM glycine pH1.5. The T200 Evaluation software V3.2 was used to align and double reference the data. The results were fit to a 1:1 binding model using the global data analysis option within the software.

[4] = target: B1; assay: SPR
Procedure: as §3

[5] = target: T2, hST2-Fc protein from R&D Systems (cat …); assay: SPR, hST2-Fc immobilised on CM5, RU against hIL-33 concentration, 2 min association; 2 min association
Procedure: (§4) Assessment was performed by SPR (Surface Plasmon Resonance) using Biacore 2000. The x-axis represents antibody concentration (nM), the y-axis represents the Response Units (RU) after correction by blank buffer.
(§5) The binding capacity as Response Units (RU) was recorded.

[6] = target: T2, hST2-Fc protein from R&D Systems (cat …); assay: SPR, hST2-Fc immobilised on CM5, RU against hIL-33 concentration, 1 min association; 1 min association
Procedure: as §4, §5

| Kd [1] | koff [1] | kon [1] | Kd [2] | koff [2] | kon [2] | fold improvement of affinity against parental antibody QB11119 [3] | fold increase of affinity against parental antibody QB11119 [4] | EC50 [5] | EC50 [6] | Binder |
| --- | --- | --- | --- | --- | --- | --- | --- | --- | --- | --- |
| 4.89 nM | 0.00188 s⁻¹ | 384000 M⁻¹ s⁻¹ | 0.207 nM | 0.000669 s⁻¹ | 3.23e+06 M⁻¹ s⁻¹ | ~3 fold | ~2 fold | – | – | anti-hIL-33 IgG1 antibody QB11421 (antibody, IgG1 L234A, L235A, P329A; also called top clone as IgG1) heavy: EVQLLESGGGLVQPGGSLRLSCAASGFTFYSSAMSWFRQTQGKGLEWVSTISSGGSNTYYPDSVKGRFTISRDNSKNTLYLQMNSLGAEDTAVYYCASAYYGRRYDAMDYWGQGTLVTVSSASTKGPSVFPLAPSSKSTSGGTAALGCLVKDYFPEPVTVSWNSGALTSGVHTFPAVLQSSGLYSLSSVVTVPSSSLGTQTYICNVNHKPSNTKVDKKVEPKSCDKTHTCPPCPAPEAAGGPSVFLFPPKPKDTLMISRTPEVTCVVVDVSHEDPEVKFNWYVDGVEVHNAKTKPREEQYNSTYRVVSVLTVLHQDWLNGKEYKCKVSNKALAAPIEKTISKAKGQPREPQVYTLPPSREEMTKNQVSLTCLVKGFYPSDIAVEWESNGQPENNYKTTPPVLDSDGSFFLYSKLTVDKSRWQQGNVFSCSVMHEALHNHYTQKSLSLSPGK light: DVVMTQSPPSLPVTLGQSASISCKSSESLLHSNANTYLYWFQQRPGQSPQLLIYRGSNLASGVPDRFSGSGSGTDFTLKISRVEAEDVGVYYCMQHLRNPYTFGQGTKVEIKRTVAAPSVFIFPPSDEQLKSGTASVVCLLNNFYPREAKVQWKVDNALQSGNSQESVTEQDSKDSTYSLSSTLTLSKADYEKHKVYACEVTHQGLSSPVTKSFNRGEC |
| – | – | – | – | – | – | – | – | 5.17 nM | 10.8 nM | B1 |
